Results taken from US20130101617A1.

Assays:
[1] = biological target: CCR5 on CF2.CD4.CCR5 cells (Homo sapiens (Human)) (UniProt P51681)
[2] = biological target: CD4 on CF2.CD4.CCR5 cells (Homo sapiens (Human)) (UniProt P01730)

JR-FL SOS gp120/gp41 trimer was tested, and the infection of CF2.CD4.CCR5 target cells [1] was 100 % of mock and the infection of CF2.CD4.CCR5 target cells [2] was 100 % of mock.
